Test results published in patent US20200270125A1 (OMEROS, published 2020).

Legend:
[1] = molecular target: T1, recombinant full-length human MASP-3 (human); experiment: ELISA, full-length human MASP-3 held by a capture antibody, monovalent Fab, anti-kappa-HRP
T1 construct: Recombinant, full-length; also called full-length human MASP-3 protein; rMASP-3 (full-length)
T1 chain: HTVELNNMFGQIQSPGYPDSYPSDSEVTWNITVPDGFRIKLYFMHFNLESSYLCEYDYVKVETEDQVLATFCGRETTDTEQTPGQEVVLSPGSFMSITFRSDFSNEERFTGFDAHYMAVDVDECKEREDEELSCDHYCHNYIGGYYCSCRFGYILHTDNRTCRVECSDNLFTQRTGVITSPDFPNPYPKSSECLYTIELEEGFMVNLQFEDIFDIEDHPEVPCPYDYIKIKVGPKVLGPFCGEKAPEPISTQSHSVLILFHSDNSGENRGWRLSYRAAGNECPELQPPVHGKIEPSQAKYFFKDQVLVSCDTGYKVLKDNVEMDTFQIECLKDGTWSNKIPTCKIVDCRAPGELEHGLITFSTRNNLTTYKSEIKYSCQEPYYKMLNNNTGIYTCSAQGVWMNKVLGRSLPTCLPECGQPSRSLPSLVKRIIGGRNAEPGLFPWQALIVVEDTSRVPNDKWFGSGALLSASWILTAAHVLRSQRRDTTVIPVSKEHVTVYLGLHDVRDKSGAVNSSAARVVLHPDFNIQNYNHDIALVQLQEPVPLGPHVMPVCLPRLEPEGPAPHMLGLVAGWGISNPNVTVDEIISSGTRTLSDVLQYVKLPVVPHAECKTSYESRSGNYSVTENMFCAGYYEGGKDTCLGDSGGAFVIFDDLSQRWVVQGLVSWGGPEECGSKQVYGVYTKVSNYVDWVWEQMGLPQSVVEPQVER
From the text: (§1) Binding affinity determinations were made by coating 96-well plates with an anti-MASP-3 capture antibody that binds the protein from multiple species.

[2] = molecular target: T2, human MASP-3 (construct not stated) (human); experiment: cross-species binding experiments
T2 construct: also called MASP-3 antigen
T2 chain: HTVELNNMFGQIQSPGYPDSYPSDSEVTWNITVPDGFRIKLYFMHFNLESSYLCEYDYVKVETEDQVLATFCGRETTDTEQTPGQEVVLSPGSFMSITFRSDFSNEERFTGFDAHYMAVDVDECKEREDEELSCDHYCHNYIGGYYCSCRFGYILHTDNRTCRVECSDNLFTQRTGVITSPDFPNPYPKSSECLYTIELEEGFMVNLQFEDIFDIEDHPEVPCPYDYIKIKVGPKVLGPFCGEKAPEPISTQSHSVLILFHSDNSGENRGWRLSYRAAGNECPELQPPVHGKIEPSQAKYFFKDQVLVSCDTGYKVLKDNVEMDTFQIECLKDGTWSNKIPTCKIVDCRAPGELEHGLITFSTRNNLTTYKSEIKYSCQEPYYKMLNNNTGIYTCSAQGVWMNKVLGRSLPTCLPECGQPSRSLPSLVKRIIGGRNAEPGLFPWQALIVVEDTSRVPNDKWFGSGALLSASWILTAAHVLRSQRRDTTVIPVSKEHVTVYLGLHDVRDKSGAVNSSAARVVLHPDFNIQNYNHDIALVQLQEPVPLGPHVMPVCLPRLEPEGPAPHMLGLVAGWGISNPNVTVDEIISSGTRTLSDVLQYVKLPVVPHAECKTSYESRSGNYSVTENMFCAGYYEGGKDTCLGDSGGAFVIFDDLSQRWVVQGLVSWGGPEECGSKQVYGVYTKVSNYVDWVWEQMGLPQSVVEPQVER

[3] = molecular target: T3, recombinant full-length mouse MASP-3 (mouse); experiment: ELISA, full-length mouse MASP-3 held by a capture antibody, monovalent Fab, anti-kappa-HRP
T3 construct: Entry is with leader; also called mouse full length MASP-3
T3 chain: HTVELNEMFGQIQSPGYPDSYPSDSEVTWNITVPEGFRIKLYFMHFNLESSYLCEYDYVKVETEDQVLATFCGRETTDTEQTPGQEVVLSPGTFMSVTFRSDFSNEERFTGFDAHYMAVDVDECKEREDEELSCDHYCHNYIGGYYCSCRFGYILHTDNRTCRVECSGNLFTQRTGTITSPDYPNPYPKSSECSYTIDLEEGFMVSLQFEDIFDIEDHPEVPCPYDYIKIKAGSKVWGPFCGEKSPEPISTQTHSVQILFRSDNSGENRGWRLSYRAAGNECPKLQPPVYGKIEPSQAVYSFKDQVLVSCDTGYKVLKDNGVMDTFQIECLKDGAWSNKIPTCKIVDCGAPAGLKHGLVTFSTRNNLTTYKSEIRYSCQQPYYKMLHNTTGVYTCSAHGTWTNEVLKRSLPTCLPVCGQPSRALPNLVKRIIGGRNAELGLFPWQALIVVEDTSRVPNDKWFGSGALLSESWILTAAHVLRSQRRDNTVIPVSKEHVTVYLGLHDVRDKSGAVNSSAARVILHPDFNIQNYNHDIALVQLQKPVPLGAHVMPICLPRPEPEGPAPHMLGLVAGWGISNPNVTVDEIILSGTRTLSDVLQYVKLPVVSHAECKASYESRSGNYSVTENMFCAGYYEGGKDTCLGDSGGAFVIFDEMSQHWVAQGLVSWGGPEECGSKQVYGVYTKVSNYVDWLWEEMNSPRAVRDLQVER
From the text: as §1

[4] = molecular target: T2, human MASP-3 (construct not stated); experiment: ELISA, monovalent Fab

EC50 [1]: ~0.117 nM
avidity [2]: < 500 pM
EC50 [3]: ~0.214 nM
EC50 [4]: 0.123 nM
B1: 13B1 Parental Fab (Fab, V domains shown)
VH: QVQLKQSGAELMKPGASVKLSCKATGYTFTGKWIEWVKQRPGHGLEWIGEILPGTGSTNYNEKFKGKATFTADSSSNTAYMQLSSLTTEDSAMYYCLRSEDVWGTGTTVTVSS
VL: DIVMTQSPSSLAVSAGEKVTMSCKSSQSLLNSRTRKNYLAWYQQKPGQSPKLLIYWASTRESGVPDRFTGSGSGTDFTLTISSVQAEDLAVYYCKQSYNIPTFGGGTKLEIKR
notes: Monovalent Fab; also called M3-1 Fab; 13B1 Fab
